Results: PMC8494293, “Relief of ParB autoinhibition by parS DNA catalysis and recycling of ParB by CTP hydrolysis promote bacterial centromere assembly” (Science Advances, 2021)

Legend:
[1] = biological target: T1, ParB(E111Q) (Bacillus subtilis, UniProt P26497, E111Q); assay: N-gate closure by BMOE cross-linking (T22C); BLI DNA loading; assay type: biochemical
T1 construct: gene spo0J; full-length, untagged
T1 sequence (P26497 1-282 E111Q): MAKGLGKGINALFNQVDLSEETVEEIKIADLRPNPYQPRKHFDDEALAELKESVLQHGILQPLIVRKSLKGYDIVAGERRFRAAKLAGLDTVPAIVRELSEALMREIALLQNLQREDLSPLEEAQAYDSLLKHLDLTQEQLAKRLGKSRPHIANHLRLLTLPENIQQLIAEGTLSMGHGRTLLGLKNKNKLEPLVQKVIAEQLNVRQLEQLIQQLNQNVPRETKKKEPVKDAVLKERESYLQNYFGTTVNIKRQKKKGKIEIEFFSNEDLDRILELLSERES

[2] = biological target: T2, ParB(E78Q) (Bacillus subtilis, UniProt P26497, E78Q); assay: as above; assay type: biochemical
T2 construct: gene spo0J; full-length, untagged
T2 sequence (P26497 1-282 E78Q): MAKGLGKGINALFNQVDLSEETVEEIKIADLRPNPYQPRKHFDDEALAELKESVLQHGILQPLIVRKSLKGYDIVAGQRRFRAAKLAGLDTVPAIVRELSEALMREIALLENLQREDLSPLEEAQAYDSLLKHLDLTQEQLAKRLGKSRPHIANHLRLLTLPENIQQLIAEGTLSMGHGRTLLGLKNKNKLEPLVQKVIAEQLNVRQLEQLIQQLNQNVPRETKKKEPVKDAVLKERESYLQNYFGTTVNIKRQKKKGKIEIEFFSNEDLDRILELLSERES

[3] = biological target: T3, ParB (Bacillus subtilis, UniProt P26497); assay: BLI of ParB loading on and dissociation from parS DNA with nucleotide; N-gate cross-linking; assay type: biochemical
T3 construct: gene spo0J; full-length, untagged
T3 sequence (P26497 1-282): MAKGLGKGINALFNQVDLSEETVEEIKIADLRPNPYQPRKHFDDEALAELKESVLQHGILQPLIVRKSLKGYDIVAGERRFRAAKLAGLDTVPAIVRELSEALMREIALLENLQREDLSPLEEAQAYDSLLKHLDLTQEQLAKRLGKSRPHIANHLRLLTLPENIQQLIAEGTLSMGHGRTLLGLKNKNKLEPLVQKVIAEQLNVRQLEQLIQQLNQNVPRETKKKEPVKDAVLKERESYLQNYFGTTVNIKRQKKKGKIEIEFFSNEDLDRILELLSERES

[4] = biological target: T3, ParB; assay: ITC; also CTP hydrolysis (malachite green), N-gate cross-linking and BLI DNA loading; assay type: binding
[5] = biological target: T1, ParB(E111Q); assay: ITC; also N-gate cross-linking and BLI DNA loading; no appreciable hydrolysis; assay type: binding
[6] = biological target: T2, ParB(E78Q); assay: as above; assay type: binding
[7] = biological target: the molecule itself; assay: cross-linking; in vitro BMOE (1 mM) cysteine cross-linking, 10 uM ParB, with or without 1 mM CTP or CTPγS and 1 uM 40-bp parS DNA, 150 mM NaCl, 50 mM tris-HCl pH 7.5, 5 mM MgCl2, room temperature; SDS-PAGE, Coomassie
[8] = biological target: T4, ParB(T22C, E78Q)-HT, P26497; assay: in vivo BMOE cysteine cross-linking (SDS-PAGE, HaloTag TMR in-gel fluorescence, band quantification); details: chain shown with the change, read off a plot
T4 chain: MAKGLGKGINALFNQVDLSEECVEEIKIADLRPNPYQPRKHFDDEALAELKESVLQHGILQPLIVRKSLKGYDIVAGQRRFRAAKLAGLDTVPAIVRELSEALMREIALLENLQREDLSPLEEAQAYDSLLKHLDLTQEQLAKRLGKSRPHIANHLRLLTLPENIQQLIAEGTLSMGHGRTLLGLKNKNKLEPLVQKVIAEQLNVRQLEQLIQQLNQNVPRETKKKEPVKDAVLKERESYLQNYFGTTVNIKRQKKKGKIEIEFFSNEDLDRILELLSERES

[9] = biological target: T5, ParB(T22C, E111Q)-HT, P26497; assay: as above; details: chain shown with the change, read off a plot
T5 chain: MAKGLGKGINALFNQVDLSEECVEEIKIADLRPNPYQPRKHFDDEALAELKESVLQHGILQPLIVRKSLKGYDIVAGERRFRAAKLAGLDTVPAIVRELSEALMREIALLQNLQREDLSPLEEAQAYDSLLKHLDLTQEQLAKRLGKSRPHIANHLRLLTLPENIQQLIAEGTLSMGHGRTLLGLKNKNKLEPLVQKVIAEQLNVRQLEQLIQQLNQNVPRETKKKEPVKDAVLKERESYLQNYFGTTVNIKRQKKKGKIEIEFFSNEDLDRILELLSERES

[10] = biological target: T6, ParB(R105C, H133C, E111Q)-HT, P26497; assay: as above; details: chain shown with the change, Inter XL plus Inter 2XL species, read off a plot
T6 chain: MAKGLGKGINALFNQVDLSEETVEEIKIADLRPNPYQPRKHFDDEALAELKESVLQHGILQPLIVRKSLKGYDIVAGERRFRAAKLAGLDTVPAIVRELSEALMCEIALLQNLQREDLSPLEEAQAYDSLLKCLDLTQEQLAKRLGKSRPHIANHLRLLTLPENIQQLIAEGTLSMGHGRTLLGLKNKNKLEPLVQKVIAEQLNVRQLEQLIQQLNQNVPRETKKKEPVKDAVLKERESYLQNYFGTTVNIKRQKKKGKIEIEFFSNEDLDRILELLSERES

[11] = biological target: T7, ParB(R105C, H133C, E78Q)-HT, P26497; assay: as above; details: chain shown with the change, Inter XL plus Inter 2XL species, read off a plot
T7 chain: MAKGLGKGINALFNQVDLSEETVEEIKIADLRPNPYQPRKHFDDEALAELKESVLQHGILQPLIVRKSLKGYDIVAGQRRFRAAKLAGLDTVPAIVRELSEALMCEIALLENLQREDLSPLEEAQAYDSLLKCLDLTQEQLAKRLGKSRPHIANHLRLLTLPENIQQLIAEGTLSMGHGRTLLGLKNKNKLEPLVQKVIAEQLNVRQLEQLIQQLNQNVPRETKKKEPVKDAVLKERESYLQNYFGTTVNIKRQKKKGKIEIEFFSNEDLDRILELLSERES

[12] = parS: Δ8 (strain lacking the 8 parS sites)

For `Nc1ccn([C@@H]2O[C@H](COP(=O)(O)OP(=O)(O)OP(O)(O)=S)[C@@H](O)[C@H]2O)c(=O)n1` [CTPγS], the “N-gate closure by BMOE cross-linking (T22C); BLI DNA loading” value [1] was “we found that the EQ mutants supported N-gate closure equally well with CTP and CTPγS”, the “N-gate closure by BMOE cross-linking (T22C); BLI DNA loading” value [2] was “we found that the EQ mutants supported N-gate closure equally well with CTP and CTPγS” and the “BLI of ParB loading on and dissociation from parS DNA with nucleotide; N-gate cr” value [3] was “differences in the dissociation rates between wild-type and EQ proteins were eliminated when CTPγS was used instead of CTP”.

Work on `Nc1ccn([C@@H]2O[C@H](COP(=O)(O)OP(=O)(O)OP(=O)(O)O)[C@@H](O)[C@H]2O)c(=O)n1` [CTP] yielded a Kd [4] of 5 to 8 µM, a Kd [5] of 5 to 8 µM and a Kd [6] of 5 to 8 µM.

B1: ParB(T22C, E78Q) (natural protein, B. subtilis, UniProt P26497 1-282, looked up)
chain: MAKGLGKGINALFNQVDLSEECVEEIKIADLRPNPYQPRKHFDDEALAELKESVLQHGILQPLIVRKSLKGYDIVAGQRRFRAAKLAGLDTVPAIVRELSEALMREIALLENLQREDLSPLEEAQAYDSLLKHLDLTQEQLAKRLGKSRPHIANHLRLLTLPENIQQLIAEGTLSMGHGRTLLGLKNKNKLEPLVQKVIAEQLNVRQLEQLIQQLNQNVPRETKKKEPVKDAVLKERESYLQNYFGTTVNIKRQKKKGKIEIEFFSNEDLDRILELLSERES
notes: ParB, B. subtilis, untagged recombinant protein, CTP hydrolysis-defective mutant with the T22C reporter cysteine; source: E. coli BL21-Gold (DE3), purified (ammonium sulfate, heparin, HiTrap SP, Superdex 200)
B1 was tested, and the binding result [7] was “binds”, the other: fraction of cross-linked dimers ([8]; N-N XL species) was 0.57 and the other: fraction of cross-linked species ([8]; parS: All) was 0.72. The other: fraction of cross-linked species [8, 12] was 0.52.

B2: ParB(T22C, E111Q) (natural protein, B. subtilis, UniProt P26497 1-282, looked up)
chain: MAKGLGKGINALFNQVDLSEECVEEIKIADLRPNPYQPRKHFDDEALAELKESVLQHGILQPLIVRKSLKGYDIVAGERRFRAAKLAGLDTVPAIVRELSEALMREIALLQNLQREDLSPLEEAQAYDSLLKHLDLTQEQLAKRLGKSRPHIANHLRLLTLPENIQQLIAEGTLSMGHGRTLLGLKNKNKLEPLVQKVIAEQLNVRQLEQLIQQLNQNVPRETKKKEPVKDAVLKERESYLQNYFGTTVNIKRQKKKGKIEIEFFSNEDLDRILELLSERES
notes: as for B1
With B2 the binding result [7] was “binds”, the other: fraction of cross-linked dimers ([9]; N-N XL species) was 0.36 and the other: fraction of cross-linked species ([9]; parS: All) was 0.49. It also gave an other: fraction of cross-linked species [9, 12] of 0.45.

B3: ParB-HT (wt) R105C; H133C; E111Q (protein)
chain: MAKGLGKGINALFNQVDLSEETVEEIKIADLRPNPYQPRKHFDDEALAELKESVLQHGILQPLIVRKSLKGYDIVAGERRFRAAKLAGLDTVPAIVRELSEALMCEIALLQNLQREDLSPLEEAQAYDSLLKCLDLTQEQLAKRLGKSRPHIANHLRLLTLPENIQQLIAEGTLSMGHGRTLLGLKNKNKLEPLVQKVIAEQLNVRQLEQLIQQLNQNVPRETKKKEPVKDAVLKERESYLQNYFGTTVNIKRQKKKGKIEIEFFSNEDLDRILELLSERES
With B3 the other: fraction of cross-linked dimers [10] was 0.2.

B4: ParB(T22C) (natural protein, B. subtilis, UniProt P26497 1-282, looked up)
chain: MAKGLGKGINALFNQVDLSEECVEEIKIADLRPNPYQPRKHFDDEALAELKESVLQHGILQPLIVRKSLKGYDIVAGERRFRAAKLAGLDTVPAIVRELSEALMREIALLENLQREDLSPLEEAQAYDSLLKHLDLTQEQLAKRLGKSRPHIANHLRLLTLPENIQQLIAEGTLSMGHGRTLLGLKNKNKLEPLVQKVIAEQLNVRQLEQLIQQLNQNVPRETKKKEPVKDAVLKERESYLQNYFGTTVNIKRQKKKGKIEIEFFSNEDLDRILELLSERES
notes: ParB, B. subtilis, untagged recombinant protein with a cysteine at the N-gate; source: E. coli BL21-Gold (DE3), purified (ammonium sulfate, heparin, HiTrap SP, Superdex 200)
B4: binds [7].

B5: ParB(A102C, H133C) (natural protein, B. subtilis, UniProt P26497 1-282, looked up)
chain: MAKGLGKGINALFNQVDLSEETVEEIKIADLRPNPYQPRKHFDDEALAELKESVLQHGILQPLIVRKSLKGYDIVAGERRFRAAKLAGLDTVPAIVRELSECLMREIALLENLQREDLSPLEEAQAYDSLLKCLDLTQEQLAKRLGKSRPHIANHLRLLTLPENIQQLIAEGTLSMGHGRTLLGLKNKNKLEPLVQKVIAEQLNVRQLEQLIQQLNQNVPRETKKKEPVKDAVLKERESYLQNYFGTTVNIKRQKKKGKIEIEFFSNEDLDRILELLSERES
notes: ParB, B. subtilis, untagged recombinant protein with cysteines at the N-M interface; source: E. coli BL21-Gold (DE3), purified (ammonium sulfate, heparin, HiTrap SP, Superdex 200)
B5: binds [7].

B6: ParB(R105C, H133C) (natural protein, B. subtilis, UniProt P26497 1-282, looked up)
chain: MAKGLGKGINALFNQVDLSEETVEEIKIADLRPNPYQPRKHFDDEALAELKESVLQHGILQPLIVRKSLKGYDIVAGERRFRAAKLAGLDTVPAIVRELSEALMCEIALLENLQREDLSPLEEAQAYDSLLKCLDLTQEQLAKRLGKSRPHIANHLRLLTLPENIQQLIAEGTLSMGHGRTLLGLKNKNKLEPLVQKVIAEQLNVRQLEQLIQQLNQNVPRETKKKEPVKDAVLKERESYLQNYFGTTVNIKRQKKKGKIEIEFFSNEDLDRILELLSERES
notes: as for B5
B6: binds [7].

B7: ParB-HT (wt) R105C; H133C; E78Q (protein)
chain: MAKGLGKGINALFNQVDLSEETVEEIKIADLRPNPYQPRKHFDDEALAELKESVLQHGILQPLIVRKSLKGYDIVAGQRRFRAAKLAGLDTVPAIVRELSEALMCEIALLENLQREDLSPLEEAQAYDSLLKCLDLTQEQLAKRLGKSRPHIANHLRLLTLPENIQQLIAEGTLSMGHGRTLLGLKNKNKLEPLVQKVIAEQLNVRQLEQLIQQLNQNVPRETKKKEPVKDAVLKERESYLQNYFGTTVNIKRQKKKGKIEIEFFSNEDLDRILELLSERES
B7 showed an other: fraction of cross-linked dimers [11] of 0.77.
